Molecular target: T1, recombinant human RHAMM (receptor for hyaluronic acid mediated motility), GST tag removed (human, UniProt O75330-3 1-725, limits assumed)
T1 construct: Any residues left by the linker after thrombin cleavage are not described; The BIAcore text says only 'RHAMM' and 'soluble monomeric RHAMM'; also called soluble monomeric RHAMM
T1 sequence (looked up): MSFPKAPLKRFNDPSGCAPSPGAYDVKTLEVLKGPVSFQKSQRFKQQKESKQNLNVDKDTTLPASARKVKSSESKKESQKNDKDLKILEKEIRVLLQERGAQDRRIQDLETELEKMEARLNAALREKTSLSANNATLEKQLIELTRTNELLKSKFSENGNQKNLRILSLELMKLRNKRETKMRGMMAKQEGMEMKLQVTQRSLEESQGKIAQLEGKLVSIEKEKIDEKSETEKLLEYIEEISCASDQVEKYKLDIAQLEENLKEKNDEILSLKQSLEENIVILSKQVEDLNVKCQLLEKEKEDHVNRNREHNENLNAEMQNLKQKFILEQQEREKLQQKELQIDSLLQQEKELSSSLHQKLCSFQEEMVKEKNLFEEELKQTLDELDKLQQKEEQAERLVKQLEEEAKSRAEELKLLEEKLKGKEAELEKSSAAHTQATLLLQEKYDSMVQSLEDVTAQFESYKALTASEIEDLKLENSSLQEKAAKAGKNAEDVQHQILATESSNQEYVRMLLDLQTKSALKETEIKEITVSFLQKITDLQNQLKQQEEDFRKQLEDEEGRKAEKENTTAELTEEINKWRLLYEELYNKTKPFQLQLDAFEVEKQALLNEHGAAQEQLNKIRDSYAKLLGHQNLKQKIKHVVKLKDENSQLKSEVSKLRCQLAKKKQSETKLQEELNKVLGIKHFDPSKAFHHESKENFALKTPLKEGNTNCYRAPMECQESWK
Assay: BIAcore SPR, mAb captured on rabbit anti-mouse IgG Fc, RHAMM injected
Experimental: The affinity of the purified mAbs was measured in the BIAcore. Using a flow rate of 10 ul/min, the mAb (diluted in HBS buffer) was injected over a rabbit anti-mouse IgG Fc surface, followed by buffer flow and the RU recorded. RHAMM diluted in HBS buffer was then injected for 180s followed by buffer flow for 150s and regeneration of the sensor chip surface with an injection of 0.1 M phosphoric acid. BIAcore software was used for association and dissociation-phase analysis. The murine monoclonal antibodies bound to soluble monomeric RHAMM. The on-rates (kₐₛₛ) and off-rates (kdiss) were calculated.

Kd: 470 pM
B1: murine monoclonal antibody 16E10 (antibody, V domains shown)
VH: QVQLKESGPGLVAPSQSLSITCTVSGFSLTGYGVNWVRQPPGKGLEWLGMIWVDGGTDYNSALKSRLSISKDNSKSQVFLKMNSLQTDDTARYYCARGGSSLLGFAYWGQGTLVTVSA
VL: DIQMTQTTSSLSASLGDRVTISCRASQDISNYLNWYQQKPDGTVKLLIYYTSRLHSGVPSRFSGSGSGTDYSLTISNLEQEDIATYFCQQGNTLPRTFGGGTKLEIKR
modifications: N-terminus of the heavy chain blocked with pyroglutamic acid
notes: The rest is mouse IgG with a kappa light chain (amplified with mouse IgG CH1 and C kappa primers); also called mAb 16E10; ATCC 16E10

Source: US20020127227A1 (GlaxoSmithKline, published 2002)
